In US20180230213A1 (AVEO PHARMACEUTICALS, published 2018):

What was measured:
[1] = molecular target: T1, human Notch3 on the cell surface (human, UniProt Q9UM47 40-2321); test: cell-based or functional assay
[2] = molecular target: T1, human Notch3 on the cell surface; test: FACS on CHO N3 cells (human Notch3), 4 C, one site binding fit
Procedure: Binding to cell surface human Notch3 by the antibody 4F11 was measured at 4° C., using Fluorescence Activated Cell Sorting (FACS). CHO N3 (Flp-In-CHO cells (Invitrogen) stably transfected with human Notch3), HCC2429 cells, and RL-952 cells expressing human Notch3 were washed once with PBS containing calcium chloride and magnesium chloride (Invitrogen) and harvested using cell dissociation buffer (Invitrogen). Cells were washed a second time with PBS and resuspended in FACS buffer (PBS with 0.5% BSA (Sigma-Aldrich)) for a final cell concentration of 250,000 cells per well into a 96-well v-bottom plate. Purified antibodies were diluted in FACS buffer over a concentration range of 100 nM to 0.1 nM. Cells were then incubated at 4° C. with […] of antibody for one hour, washed with FACS buffer twice, and resuspended in […] of goat-anti mouse PE-conjugated antibody (Jackson Immuno Research). Cells were incubated at 4° C. for 30 minutes in the dark, washed once with FACS buffer, and then analyzed using a Beckman Coulter Cytomics FC 500 instrument. The geometric mean of the florescent intensity was then calculated for each antibody concentration. These values were then entered into Prism software (GraphPad, La Jolla, Calif.) and used to generate a binding curve by plotting geometric mean versus antibody concentration. […]

[3] = molecular target: T2, recombinant human Notch3 extracellular domain (containing EGF like domains 1-11) Fc fusion protein (human, UniProt Q9UM47 40-467); test: SPR Biacore T100, 4F11 captured by anti-mouse IgG, rhNotch3-Fc analyte, 37 C
T2 construct: domain: EGF like domains 1-11; also called rhNotch3-Fc; rhNotch3
T2 sequence (looked up): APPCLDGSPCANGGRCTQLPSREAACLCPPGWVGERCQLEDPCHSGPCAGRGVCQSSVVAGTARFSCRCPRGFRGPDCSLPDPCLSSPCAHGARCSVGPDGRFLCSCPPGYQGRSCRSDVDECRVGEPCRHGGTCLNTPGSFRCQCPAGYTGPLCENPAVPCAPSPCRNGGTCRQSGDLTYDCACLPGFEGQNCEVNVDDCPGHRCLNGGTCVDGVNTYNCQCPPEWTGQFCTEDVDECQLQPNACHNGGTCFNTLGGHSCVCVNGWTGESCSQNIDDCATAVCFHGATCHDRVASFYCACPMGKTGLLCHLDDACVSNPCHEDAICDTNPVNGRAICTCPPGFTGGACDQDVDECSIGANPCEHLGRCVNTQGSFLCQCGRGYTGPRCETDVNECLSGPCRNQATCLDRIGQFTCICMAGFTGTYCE
Procedure: The binding affinity and kinetics of binding of antibody 4F11 to recombinant human Notch3 extracellular domain (containing EGF like domains 1-11) Fc fusion protein (rhNotch3-Fc (R&D Systems, Inc., Minneapolis, Minn.)) were measured by surface plasmon resonance using a Biacore® T100 instrument (GE Healthcare, Piscataway, N.J.).
Rabbit anti-mouse IgGs (GE Healthcare) were immobilized on carboxymethylated dextran CM4 sensor chips (GE Healthcare) by amine coupling, according to a standard protocol. Analyses were performed at 25° C. and 37° C. using PBS containing 0.05% surfactant P20 as running buffer. The antibody was captured in individual flow cells at a flow rate of 10 μl/minute. Injection time was varied for each antibody to yield an Rmax between 30 and 60 resonance units (RU). Buffer or rhNotch3-Fc diluted in running buffer was injected sequentially over a reference surface (no antibody captured) and the active surface (antibody to be tested) for 240 seconds at 60 μl/minute. The dissociation phase was monitored for up to 1500 seconds. The surface was then regenerated with two 60-second injections of 10 mM Glycine-HCl, pH 2.25, at a flow rate of 30 μl/minute. The rhNotch3-Fc concentration range tested was 100 nM to 3.125 nM (2 fold dilution).
Kinetic parameters were determined using the kinetic function of the BIAevaluation software (GE Healthcare) with double reference subtraction. Kinetic parameters for the antibody, kₐ (association rate constant), kd (dissociation rate constant) and KD (equilibrium dissociation constant) were determined.

rhNotch2-Fc = molecular target: T3, rhNotch2-Fc (human, UniProt Q04721 26-530); test: BLI (Octet QK): rhNotch2-Fc loaded on anti-human-Fc sensors, then antibody 4F11 in solution
T3 construct: also called human Notch2 protein; R&D Cat. No. 3735-NT-050
T3 sequence (looked up): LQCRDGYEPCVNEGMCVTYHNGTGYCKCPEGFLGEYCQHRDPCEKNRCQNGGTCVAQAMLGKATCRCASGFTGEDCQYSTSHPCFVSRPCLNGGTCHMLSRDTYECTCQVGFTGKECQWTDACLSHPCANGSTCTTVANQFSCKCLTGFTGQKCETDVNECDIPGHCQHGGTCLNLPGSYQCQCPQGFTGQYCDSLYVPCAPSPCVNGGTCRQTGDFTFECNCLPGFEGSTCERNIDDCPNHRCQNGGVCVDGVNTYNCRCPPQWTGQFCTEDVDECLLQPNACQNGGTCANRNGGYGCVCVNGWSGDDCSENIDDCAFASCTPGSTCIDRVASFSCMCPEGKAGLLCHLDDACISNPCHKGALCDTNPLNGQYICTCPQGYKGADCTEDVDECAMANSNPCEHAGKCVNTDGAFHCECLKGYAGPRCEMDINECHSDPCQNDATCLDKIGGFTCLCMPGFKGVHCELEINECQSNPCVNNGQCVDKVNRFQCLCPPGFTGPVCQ
Procedure: Antibody 4F11 was tested for binding to human Notch1, human Notch2, or human Notch3 proteins. Binding measurements were made by biolayer interferometry (BLI), using a FortéBio Octet® QK instrument (FortéBio, Menlo Park, Calif.). Anti-human-Fc sensors were soaked in PBS containing 1 mg/ml BSA for five minutes prior to binding of antibodies. Then the following proteins (400 nM, in PBS containing 1 mg/ml BSA) were allowed to bind to the sensors: rhNotch1-Fc (R&D Systems, Minneapolis, Minn.; Cat. No. 3647-TK-050), rhNotch2-Fc (R&D Cat. No. 3735-NT-050), rhNotch3-Fc (R&D Cat. No. 1559-NT-050), or rmNotch3-Fc (R&D Cat. No. 1308-NT-050). Notch protein bound sensors were immersed in antibody solution (50 μg/ml) to allow binding of antibody to the Notch protein. Binding was detected by shifts in the interference pattern.

EC50, inhibition of Notch3-dependent reporter activity stimulated by DLL1 [1]: 6 nM | EC50, inhibition of Notch3-dependent reporter activity stimulated by DLL4 [1]: 4.7 nM | EC50, inhibition of Notch3-dependent reporter activity stimulated by Jag1 [1]: 2.6 nM | EC50, inhibition of Notch3-dependent reporter activity stimulated by Jag2 [1]: 0.4 nM | Kd [2]: 0.36 nM | Kd [3]: 0.78 nM | koff [3]: 5.7e-05 s⁻¹ | kon [3]: 75000 M⁻¹ s⁻¹ | binding result (rhNotch2-Fc): no binding
B1: antibody 4F11 (murine monoclonal anti-human Notch3) (antibody, mouse IgG1, kappa, V domains shown)
VH: EVQLVESGGGLVKPGGSLKLSCAASGFAFSSYDMSWVRQTPEKRLEWVAYISRGGGSTYYPDTVKGRFTISRDNAKNTLYLQMSSLKSEDTAMYYCGRHATTAYWYFDVWGAGTTVTVSS
VL: DVVMTQTPLSLPVSLGDQASISCRSSQSLVHTNGNTYLHWYLQKPGQSPKLLIYKVSNRFSGVPDRFSGSGSGTDFTLKISRVEAEDLGVYFCSQSTHVPWTFGGGTKLEIKR
notes: Mouse IgG1 kappa purified from hybridoma; also called mu4F11; murine 4F11
